We go through 68 sequences from the domain aggregation screens of Martell et al. (2025).

The data set is described as follows: soluble fraction after stress (log2 fold change); higher = more stays soluble; pooled small domains, quantitative proteomics. The following applies: stress: 50 degC. In outline:
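Quantitative proteomics served as the high-throughput read-out for pooled custom libraries of small protein domains. Each was stressed at 50°C. Aggregation propensity is expressed as the base-two log fold change in soluble protein after stress. A higher value means a larger share of the protein remains in solution.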
Take “HMAPVVAILTRQLPLPQAQQLAGQTALVRVVKGGPGNEAELEFAGQNIQVKLPPGRQLTAGEMVTVAFALS”: the “soluble fraction (log2)” value came out at 0.0876.

As to “HMAQASEPMLALIRLKWWEEQINSPVKGDSLPLLSQLNSHISAGYLSRSQVTSLIQRWQDYA”, the “soluble fraction (log2)” value is -0.787.

As for “HMAQFNELLFELRQDRKMTQEDLAKVLFVTSGTISNYENGVHLPDIEKLISLADFFGVTTDYLLG”, the “soluble fraction (log2)” value was -0.104.

Consider “HMAQLKYEQIKSYLQAEAVKPESATRMPTVRELMRRFNVSLVTVNRALSELEHAKVIVRRQGAGIVAAQ”, for which the “soluble fraction (log2)” value was -0.703.

Take “HMAQLPADMSRVKSADVSDAQLREFVQKAQASGQTETQLFREFSRRGMPTNEINILRSRMVGLQNN”: the “soluble fraction (log2)” value was found to be 0.0388.

As to “HMAQLPPTATARATSDVSGLTASAALRTLLEQGFVPQIHGSGKVSRQHPPAGTLLEPGSTIQLFLEPS”, the “soluble fraction (log2)” value stood at 0.354.

Take “HMAQLSDMLTYLRKRKGLSQQELANTLKISRSAIGMYETGKREPDLETLEVFADFYNVDMNTLTGKA”: the “soluble fraction (log2)” value was -0.143.

As for “HMAQNILPGQKNAIKSLATSAGFSQQELDSYLSQNYGKTLNNLSQKEGASLISGLQDGSIKKP”, the “soluble fraction (log2)” value amounted to 0.352.

For “HMAQPIPSGSDIREAREAAGMNLRDFARMVGGGAIGTWSHYETGKPIRVKSISPEVWQRVRDFILQHGK”, the “soluble fraction (log2)” value is -0.417.

Consider “HMAQRAADEARTHEILGLLRQARAALDHGGTARAARLRASIAEKLPAAPALPAWFARQLEQVDSQLAELQD”, for which the “soluble fraction (log2)” value was -0.432.

On to “HMAQRFDLGDKLNPQSSEFEYLGTSSRTGVSTYRYKNVPTQLFFGRQIGDIVVGVRRGMITLTIYNL”, for which the “soluble fraction (log2)” value was -0.0451.

As to “HMAQSTALVNLAQAEINKRGLTQTEVQARLSEEGINVNSISPAEYPKYQKQILSILDQMQKEKQLSKEV”, the “soluble fraction (log2)” value came out at 0.412.

Turning to “HMAQVDAVQQVLQAFPALRSGQSQHLSQVVAALRQRGILTVGTKTTAWFAQWASVFQLLPLQVPNRIRYQS”, the “soluble fraction (log2)” value is -0.066.

For the sequence “HMARGRETILLVEDEPAVRGLVHATLRLHGYTVLEARHGIEALLTSTKFVGPIHLLLTDVVMPQMS”, the “soluble fraction (log2)” value came to 0.182.

On to “HMARHIHFEVHVQQAGRWSIHAQFGAGQREKAIEEAKKIEKTPGFDSVKVVKETYDSDLGNHQDTTIYRGP”, for which the “soluble fraction (log2)” value is -0.506.

With “HMARKTIFHSLLGELEQRIGRLPAGTILPAEQALADEYGVSKPTLRRALAELAEHGLITKENGIGSVVI”, the “soluble fraction (log2)” value was -0.45.

In the case of “HMARLAGVDLPREKRIEIGLTYIYGIGLARSQEILKKAGINPDIRVKDLTDEQEQAIRNAMDGYIVEGDL”, the “soluble fraction (log2)” value is -0.148.

Turning to “HMARLQEVVVRVPVEDGQTLAAIYREAEVIERADEGTGVLLTVRIPAPLLGRLRRLEGVHVQP”, the “soluble fraction (log2)” value was -0.125.

“HMARRLELEDIPVDEVLFTASRNLVDAIEVMDPSRQAPMIQPWLKQALEWAVGALGFSKEDAVATLTSD”: the “soluble fraction (log2)” value was -0.0273.

As to “HMASAAHYEGVKTEGESDNDVITRVLTATGVTAEKDDIFVVKSLIADGKYSYTAYVYDGSVWAAMD”, the “soluble fraction (log2)” value is -0.0797.

In the case of “HMASALDVALNDFAEMRKKMRKPLTDRALALTLSELEKLAPGNDEKKIAILNQSIQRGWQGVFPLK”, the “soluble fraction (log2)” value is -0.162.

Turning to “HMASDEVPGAGFKWREDVLLRVMEANGIDKSNRDDFVRHAVNFDDDDNNYLKKAEIEAAAAAWVESQSPA”, the “soluble fraction (log2)” value was -0.291.

As to “HMASDLPTVTIMGKTFYTYVAKKGESFFGIANRFGWDPELLVKTNRELETPLDKGALIYYPVPKKPK”, the “soluble fraction (log2)” value was -0.199.

Consider “HMASIATLTVKALGGASDVVIRDKDGRIIWADRLPAGQSHRVFGHAPFNVAASHASRVQLSLLGKDVGRV”, for which the “soluble fraction (log2)” value is -0.719.

In the case of “HMASISDRIRLLRAESHMTQEEFGRIFGISKPTVSFYEHGKSVPNDQIKTAIARYFGVSVDYLLGVTD”, the “soluble fraction (log2)” value was -1.89.

For the sequence “HMASKTGTITATSLNVRSGAATTYSILGTLSNGKTVTIYEESNGWYKINYNGGYGWVSKTYVSTG”, the “soluble fraction (log2)” value was -0.435.

As to “HMASLASVAYETLRQALDNFQYVPGDRFSESEVGQQLGMSRTPVREALVRLQREGYISVLPKMGWVVNQ”, the “soluble fraction (log2)” value is -1.64.

For the sequence “HMASMHDGVAARLRAMVFERELAPGEFIDERRLAQQWQISRTPLREALKVLAAEGLVELVPRRGARVV”, the “soluble fraction (log2)” value is -0.298.

For “HMASPKEALWRSLAEEPDTWWDNRERKSQPGANPRSPDFKHKESGEALWIESRDTPTWVLETL”, the “soluble fraction (log2)” value was 0.1.

For the sequence “HMASQEESVATYIQDYYRNPKTGESMVSDDMVEEFYKTHPEWEDQADGSKEGMEAVLDNFNEFFEINYG”, the “soluble fraction (log2)” value is 0.0827.

In the case of “HMASSRPLAEGDFVRLRAGGATGRIESIKGQKATVQMGGLKVHAPLRDLLPVAEPIKQVSTASNT”, the “soluble fraction (log2)” value came out at 0.0407.

On to “HMASVAKHIRRLRTERHMTQGDLAEKLFVTRQTVSAWETGKAQPDLETLERIAVVLGVEVTELIYGAP”, for which the “soluble fraction (log2)” value is -0.0295.

Consider “HMASVVEQVQVSNDISLFRQQNSPYWQARFKVAGKWYTRTTKRTEQTQAAFRAAELRSEVQTKISQGIPLR”, for which the “soluble fraction (log2)” value is -0.866.

With “HMATESYYVLKADVPAKTLVTQEMVEEIKVSKGGAPVNSIKIDNIKEKGVYTSIPLLKGDVLSASNTG”, the “soluble fraction (log2)” value worked out at 0.00692.

As for “HMATKVSSGATVRDVADLLGLSSAELIKKLMMMGEMATLTQTLTDESIKSIADEYDRKIEIVSAAE”, the “soluble fraction (log2)” value is 0.0948.

As to “HMATNVLEISTRNKNILIQDSLNLVESFYSKSDNQYWYKLVFKTKDDLNKFLQEVSEDENTITYKTSSI”, the “soluble fraction (log2)” value was 0.217.

Regarding “HMATPEINNLGRLRNAINQSNVNWHQIIKRLQNEYPNNWRQILIAIDRHDLLFRYDVENYIKYG”, the “soluble fraction (log2)” value is -1.56.

With “HMATPIAGTKYTLNNTPVYGTEKGPSIGKRSGIYYTWDATVRNGRIRMTNSPARVGVPWQVSFWVEVNKL”, the “soluble fraction (log2)” value is -0.533.

With “HMATPRLAIVPQSAAGRRLDAVLAELFPEYSRSRLSAWIKTGDVMVDGAAPRGRDPVRGGEEITLTAVQ”, the “soluble fraction (log2)” value was -0.033.

As for “HMATPTEHQLQAQARAVVEKAERLLDRASADDREDIINLIEKITDALAAEDFTAVKAPLAELSDILFYLE”, the “soluble fraction (log2)” value is -0.418.

With “HMATPTMEDYIEVIYSLVKTKGYARSADIAEKLEVYPSTVTKMLKKLDAEGYIVYEKYRGIALTDIGKKMG”, the “soluble fraction (log2)” value was -1.73.

For “HMATSNGEFVIPDGGLQFEELERSLLMQALKKSGGSQTGAARLLGLSRDTLRYRLEKFGIDAAAVRE”, the “soluble fraction (log2)” value was -0.165.

For “HMATVTVPNLKGMTPSGAESALAELNLKGAVGDSVESNDVENGKVASQDQAAGSDAKEGDTITYHLSS”, the “soluble fraction (log2)” value was determined as 0.0967.

For “HMATYETEVISGVNLRSAPNTSASVYRLLSKGEDIHVIQKVNDYWLKVQTKDGKIGYISASSKYTNYIA”, the “soluble fraction (log2)” value was -0.29.

For the sequence “HMAVEETFTITWLDRDGTVLEVDENVLKGTMPSFDGHIPPHDGLEFKGWDPEVVPVEGDATYTATYKA”, the “soluble fraction (log2)” value was -0.176.

For the sequence “HMAVENTGLSKRELEILQMMARGMSNQEIGDALFISLSTVKTHVASIFSKLQAVRRTQAVGIAKSLKII”, the “soluble fraction (log2)” value is -0.917.

Turning to “HMAVFSKKQIFDTAFALFESKGLEAITARNLGKALSSSPAPIYAHYSSITELKNELISVAKDR”, the “soluble fraction (log2)” value was -2.25.

Turning to “HMAVGDMISKLRTAANMSQEQFAELFGVTRQSVQKWENSFSVPELEKLIKISKYFDVSLDALVLRSDARVT”, the “soluble fraction (log2)” value was -1.06.

As for “HMAVLFFVKRGERILGPTRLADLFQHAASGRLRANDLVGESPKGPWLPARQLDELEDAWASSRDATEAAAA”, the “soluble fraction (log2)” value is 0.251.

As for “HMAVNQEFKNTINRIKYEYSLNQSQIADRLGVKKTYLSDMINGRVPYNETMNKKVNDVFPLPP”, the “soluble fraction (log2)” value stood at 0.11.

Take “HMAVPTHVEFPVVGLQRSGITSLEQAIATVPGVSKAVVNVSDNRIFVDYDPTRSKVSDLLEVVRGAGFTP”: the “soluble fraction (log2)” value is -0.000584.

As for “HMAVQAESDIIKRAALLRNLGNTSMQLKNIDQAIDFYKQGIKLHPEDAELKYNLSQALRQKSQSNN”, the “soluble fraction (log2)” value was 0.0399.

“HMAVQEDAGLAREDLPPEVQGLLQEREAARAAKDWGKSDALRRQLQDLGYAIKDTAQGMEIKRT”: the “soluble fraction (log2)” value worked out at 0.425.

On to “HMAVRNTKQKQLVLSLLKNSGRPMTAGEIYRLAVQQYPNIAKSTVYRNLENLVSRGEVSQGMHQNGESFYS”, for which the “soluble fraction (log2)” value was -0.299.

With “HMAVSPEEQKKRIIELFRNRNEVSFKEIFDLPTKGHFVITLLAVLDLARQQIVIMEQLENEGIIKFTKGA”, the “soluble fraction (log2)” value was -0.0715.

As for “HMAVSSHAVKQRIRSLIQAEDPAAPLSDEALRLALSALGVDVSRRVIAKYRAELNIPSSSQRKK”, the “soluble fraction (log2)” value amounted to 0.045.

Turning to “HMAVSVPDVMGLTYEEAYNKITAEGLLVNRLESYTGLVEKGRVISQLPVGGEPAAKGSTVNVNVSL”, the “soluble fraction (log2)” value came to 0.252.

Consider “HMAVTFPYTAYATDAVRLRERPSSSADVLAVIRKGDAVLVTGTDGNYAIVDYEGKRGYVVSSFIAT”, for which the “soluble fraction (log2)” value was -0.317.

For “HMAVWRIKVNYIPGYGVNIWSSYKNGHFTGKRAMHGETYEVLETKKDQDGNTWYKLDDHQWIEGRYAINAK”, the “soluble fraction (log2)” value is -0.466.

As for “HMAYMETIERVEALAPGTKFNLKALFGTDWTQSRGTKLTLGKTFYEMVESGYVKTAKVLGKDSSNIMQYER”, the “soluble fraction (log2)” value is -0.107.

As for “HMAYSEEERNLIRSRLKDVAAALFKEKGIRDTNIDEIYTPVGISKTFFYSFFPSKAVLAIAIMK”, the “soluble fraction (log2)” value was determined as 0.0382.

On to “HMAYVDWYENKQPTHEEAFKKLLGRIHPGAIVLLHSTSKTNGEILDELLTKWEEMGYRFGTLDELTGN”, for which the “soluble fraction (log2)” value is -1.18.

“HMDAATDAIKAEVRALLEMANAQGIDTESIMLEAHEQTRNATEQDYYEAAKSALEAAIAGSNRDR”: the “soluble fraction (log2)” value came out at 0.0377.

Take “HMDADGEPIKLDQIGISHLSFTVADVKSLGEELVAKGVKLAAPMEAFTSPEGRISSIFVYDPDGILLQFDD”: the “soluble fraction (log2)” value is -0.104.

Take “HMDADRLSPREREMLQFIARGQSNKEIARALELAESTVKIHVQNMLRKLNLSSRVQAAVFAVENGLG”: the “soluble fraction (log2)” value is -0.109.

With “HMDAGLAEIIRSFEDNLGGFPPAAREDLLGWREIFTDDLILLAIKKAALAGVRKWSYVNGILKVWKNEGVR”, the “soluble fraction (log2)” value was -0.742.

On to “HMDAHYMEMKGKTGTAFTMLRPAGKIDIEGQIFDAVAEAGFIEKGEAIRVVKYENAQLIVRK”, for which the “soluble fraction (log2)” value came to 0.11.

With “HMDAIAYLGSRLKEIRLKSGLSLREIARQLDVSPSFISQIENGKSQPSVATLYAFAKLLNVPVDVLFQPS”, the “soluble fraction (log2)” value was -1.05.
